# Results from publication PMC9325241.
# Tests used:
# [1] = molecular target: recombinant EGFR (human EGFR protein) (human) (UniProt P00533); test: SPR; settings: bispecific antibody
# [2] = molecular target: recombinant PD-L1 (human PD-L1 protein) (human) (UniProt Q9NZQ7); test: SPR; settings: bispecific antibody
# Sequence of UniProt Q9NZQ7 (Q9NZQ7 19-238): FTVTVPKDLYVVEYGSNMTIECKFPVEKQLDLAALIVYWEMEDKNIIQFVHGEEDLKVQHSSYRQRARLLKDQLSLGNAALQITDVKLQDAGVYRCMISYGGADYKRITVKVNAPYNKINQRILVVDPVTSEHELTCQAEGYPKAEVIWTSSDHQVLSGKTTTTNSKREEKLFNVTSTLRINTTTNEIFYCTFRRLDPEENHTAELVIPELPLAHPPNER
Kd [1] [nM],koff [1] [s⁻¹],Kd [2] [nM],koff [2] [s⁻¹],Substance
0.913,0.0007,0.000374,7.56e-07,"anti-EGFR/PD-L1 BsAb, dual variable domain immunoglobulin (DVD-Ig) symmetric tetravalent format (from UniProt P01857)"
56.3,0.0295,0.0106,2.13e-05,"anti-EGFR/PD-L1 BsAb, knob-in-hole (KIH) asymmetric bivalent format (from UniProt P01857)"
